Reference: patent publication US20180333469A1 (PORTOLA PHARMACEUTICALS, published 2018)
Where a chain is given by its changes, count along the chain named. Each block holds one binder with its values, some of them ahead of it.

What was measured:
[1] = target: T1, tissue factor pathway inhibitor (TFPI) (UniProt P10646 29-304, limits assumed); experiment: Kd of fXa derivative-TFPI over Ki of TFPI-fXa, fXa chromogenic assay (FIG. 1D)
T1 sequence (looked up): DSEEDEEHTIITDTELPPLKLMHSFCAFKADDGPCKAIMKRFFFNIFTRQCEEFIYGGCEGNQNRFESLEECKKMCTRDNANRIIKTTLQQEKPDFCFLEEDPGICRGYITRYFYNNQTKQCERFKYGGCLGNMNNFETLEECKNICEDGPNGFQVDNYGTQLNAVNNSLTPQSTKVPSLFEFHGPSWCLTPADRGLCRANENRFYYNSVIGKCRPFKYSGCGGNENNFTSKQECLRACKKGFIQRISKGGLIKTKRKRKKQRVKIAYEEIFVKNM
Description: The binding kinetics were determined using three different concentrations of the fXa derivative (0, 1 nM, and 5 nM) and escalating doses of TFPI, up to about 12 nM. fXa chromogenic activity was measured following a 2 hour incubation of fXa (1 nM). Residual fXa activity was measured by cleavage of the peptidyl substrate Spectrozyme-fXa (100 μM).

[2] = target: T1, tissue factor pathway inhibitor (TFPI); experiment: competition in the fXa chromogenic activity assay: SEQ ID NO: 3 competes with fXa (1.0 nM) for TFPI (1.0 nM)
factor VII (fVII) [3] = target: T2, factor VII (fVII) (UniProt P08709 61-466); experiment: SPR, Biacore 3000, fXa derivative immobilized on CM-5 chip
T2 sequence (looked up): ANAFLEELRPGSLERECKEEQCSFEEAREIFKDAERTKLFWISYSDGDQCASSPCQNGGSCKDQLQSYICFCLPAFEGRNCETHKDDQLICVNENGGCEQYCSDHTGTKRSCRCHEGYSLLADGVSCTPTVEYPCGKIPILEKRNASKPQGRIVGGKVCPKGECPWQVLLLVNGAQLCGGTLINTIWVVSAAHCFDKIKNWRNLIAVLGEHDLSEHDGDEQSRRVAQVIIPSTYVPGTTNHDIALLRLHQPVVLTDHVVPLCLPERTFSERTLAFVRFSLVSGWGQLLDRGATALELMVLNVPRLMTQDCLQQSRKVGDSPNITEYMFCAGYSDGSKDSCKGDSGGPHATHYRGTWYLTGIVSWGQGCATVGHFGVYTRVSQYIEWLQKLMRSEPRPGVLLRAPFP
Description: (§1) A few major plasma proteins, including tissue factor pathway inhibitor (TFPI), antithrombin III (ATIII), α-2-macroglobulin, α-1-antitrypsin, factor VII (fVII), factor X (fX), prothrombin, and factor V (fV), were tested for their binding affinity to a wild-type factor Xa (fXa) and two individual preparations (Prep 1 and Prep 2) of the fXa derivative (SEQ ID NO: 3). The binding experiment was conducted with a Biacore® 3000 with the fXa derivative immobilized on a CM-5 sensor chip according to manufacturer's instruction.

α-2-macroglobulin [4] = target: T3, α-2-macroglobulin (UniProt P01023 24-1474); experiment: SPR, Biacore 3000, CM-5 chip (Prep 1)
T3 sequence (looked up): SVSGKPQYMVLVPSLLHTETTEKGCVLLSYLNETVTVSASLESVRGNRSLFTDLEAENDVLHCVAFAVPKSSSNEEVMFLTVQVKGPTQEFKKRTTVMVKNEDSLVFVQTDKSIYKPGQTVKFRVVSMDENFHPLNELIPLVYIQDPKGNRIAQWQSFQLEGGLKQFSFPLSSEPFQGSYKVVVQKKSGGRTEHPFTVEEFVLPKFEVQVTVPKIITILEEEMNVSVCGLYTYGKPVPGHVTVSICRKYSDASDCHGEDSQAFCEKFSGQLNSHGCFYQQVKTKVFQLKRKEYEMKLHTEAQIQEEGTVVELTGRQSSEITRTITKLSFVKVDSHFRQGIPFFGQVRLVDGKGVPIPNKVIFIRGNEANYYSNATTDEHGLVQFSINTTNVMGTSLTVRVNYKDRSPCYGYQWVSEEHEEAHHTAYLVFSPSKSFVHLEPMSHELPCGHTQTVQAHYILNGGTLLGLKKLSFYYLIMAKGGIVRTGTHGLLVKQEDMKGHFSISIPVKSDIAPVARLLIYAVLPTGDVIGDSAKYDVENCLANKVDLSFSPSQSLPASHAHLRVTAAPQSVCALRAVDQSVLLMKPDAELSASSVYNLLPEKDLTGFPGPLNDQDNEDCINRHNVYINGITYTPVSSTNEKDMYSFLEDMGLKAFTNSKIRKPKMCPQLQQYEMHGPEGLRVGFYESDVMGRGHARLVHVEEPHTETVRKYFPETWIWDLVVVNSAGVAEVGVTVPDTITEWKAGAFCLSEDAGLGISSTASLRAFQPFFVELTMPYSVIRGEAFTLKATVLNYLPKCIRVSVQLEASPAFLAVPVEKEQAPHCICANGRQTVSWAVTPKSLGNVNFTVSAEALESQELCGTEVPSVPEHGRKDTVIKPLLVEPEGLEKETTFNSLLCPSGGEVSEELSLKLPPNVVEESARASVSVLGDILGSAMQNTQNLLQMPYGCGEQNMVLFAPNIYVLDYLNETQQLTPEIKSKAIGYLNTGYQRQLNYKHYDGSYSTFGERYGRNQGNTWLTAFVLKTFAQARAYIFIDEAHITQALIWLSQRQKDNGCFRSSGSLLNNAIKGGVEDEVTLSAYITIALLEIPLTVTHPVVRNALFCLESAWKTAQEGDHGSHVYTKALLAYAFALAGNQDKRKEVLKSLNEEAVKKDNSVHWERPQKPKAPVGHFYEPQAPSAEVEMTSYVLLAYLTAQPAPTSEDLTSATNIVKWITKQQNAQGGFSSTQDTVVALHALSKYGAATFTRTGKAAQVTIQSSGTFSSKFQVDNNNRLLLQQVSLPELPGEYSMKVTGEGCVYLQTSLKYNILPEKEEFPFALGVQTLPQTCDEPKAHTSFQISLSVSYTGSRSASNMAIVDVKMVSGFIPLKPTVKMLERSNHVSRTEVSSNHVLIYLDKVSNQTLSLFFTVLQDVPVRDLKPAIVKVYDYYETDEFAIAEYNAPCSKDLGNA
Description: as §1

factor V (fV) [5] = target: T4, factor V (fV) (UniProt P12259 29-2224); experiment: SPR, Biacore 3000, CM-5 chip (Prep 1)
T4 sequence (P12259 29-2224 limits assumed): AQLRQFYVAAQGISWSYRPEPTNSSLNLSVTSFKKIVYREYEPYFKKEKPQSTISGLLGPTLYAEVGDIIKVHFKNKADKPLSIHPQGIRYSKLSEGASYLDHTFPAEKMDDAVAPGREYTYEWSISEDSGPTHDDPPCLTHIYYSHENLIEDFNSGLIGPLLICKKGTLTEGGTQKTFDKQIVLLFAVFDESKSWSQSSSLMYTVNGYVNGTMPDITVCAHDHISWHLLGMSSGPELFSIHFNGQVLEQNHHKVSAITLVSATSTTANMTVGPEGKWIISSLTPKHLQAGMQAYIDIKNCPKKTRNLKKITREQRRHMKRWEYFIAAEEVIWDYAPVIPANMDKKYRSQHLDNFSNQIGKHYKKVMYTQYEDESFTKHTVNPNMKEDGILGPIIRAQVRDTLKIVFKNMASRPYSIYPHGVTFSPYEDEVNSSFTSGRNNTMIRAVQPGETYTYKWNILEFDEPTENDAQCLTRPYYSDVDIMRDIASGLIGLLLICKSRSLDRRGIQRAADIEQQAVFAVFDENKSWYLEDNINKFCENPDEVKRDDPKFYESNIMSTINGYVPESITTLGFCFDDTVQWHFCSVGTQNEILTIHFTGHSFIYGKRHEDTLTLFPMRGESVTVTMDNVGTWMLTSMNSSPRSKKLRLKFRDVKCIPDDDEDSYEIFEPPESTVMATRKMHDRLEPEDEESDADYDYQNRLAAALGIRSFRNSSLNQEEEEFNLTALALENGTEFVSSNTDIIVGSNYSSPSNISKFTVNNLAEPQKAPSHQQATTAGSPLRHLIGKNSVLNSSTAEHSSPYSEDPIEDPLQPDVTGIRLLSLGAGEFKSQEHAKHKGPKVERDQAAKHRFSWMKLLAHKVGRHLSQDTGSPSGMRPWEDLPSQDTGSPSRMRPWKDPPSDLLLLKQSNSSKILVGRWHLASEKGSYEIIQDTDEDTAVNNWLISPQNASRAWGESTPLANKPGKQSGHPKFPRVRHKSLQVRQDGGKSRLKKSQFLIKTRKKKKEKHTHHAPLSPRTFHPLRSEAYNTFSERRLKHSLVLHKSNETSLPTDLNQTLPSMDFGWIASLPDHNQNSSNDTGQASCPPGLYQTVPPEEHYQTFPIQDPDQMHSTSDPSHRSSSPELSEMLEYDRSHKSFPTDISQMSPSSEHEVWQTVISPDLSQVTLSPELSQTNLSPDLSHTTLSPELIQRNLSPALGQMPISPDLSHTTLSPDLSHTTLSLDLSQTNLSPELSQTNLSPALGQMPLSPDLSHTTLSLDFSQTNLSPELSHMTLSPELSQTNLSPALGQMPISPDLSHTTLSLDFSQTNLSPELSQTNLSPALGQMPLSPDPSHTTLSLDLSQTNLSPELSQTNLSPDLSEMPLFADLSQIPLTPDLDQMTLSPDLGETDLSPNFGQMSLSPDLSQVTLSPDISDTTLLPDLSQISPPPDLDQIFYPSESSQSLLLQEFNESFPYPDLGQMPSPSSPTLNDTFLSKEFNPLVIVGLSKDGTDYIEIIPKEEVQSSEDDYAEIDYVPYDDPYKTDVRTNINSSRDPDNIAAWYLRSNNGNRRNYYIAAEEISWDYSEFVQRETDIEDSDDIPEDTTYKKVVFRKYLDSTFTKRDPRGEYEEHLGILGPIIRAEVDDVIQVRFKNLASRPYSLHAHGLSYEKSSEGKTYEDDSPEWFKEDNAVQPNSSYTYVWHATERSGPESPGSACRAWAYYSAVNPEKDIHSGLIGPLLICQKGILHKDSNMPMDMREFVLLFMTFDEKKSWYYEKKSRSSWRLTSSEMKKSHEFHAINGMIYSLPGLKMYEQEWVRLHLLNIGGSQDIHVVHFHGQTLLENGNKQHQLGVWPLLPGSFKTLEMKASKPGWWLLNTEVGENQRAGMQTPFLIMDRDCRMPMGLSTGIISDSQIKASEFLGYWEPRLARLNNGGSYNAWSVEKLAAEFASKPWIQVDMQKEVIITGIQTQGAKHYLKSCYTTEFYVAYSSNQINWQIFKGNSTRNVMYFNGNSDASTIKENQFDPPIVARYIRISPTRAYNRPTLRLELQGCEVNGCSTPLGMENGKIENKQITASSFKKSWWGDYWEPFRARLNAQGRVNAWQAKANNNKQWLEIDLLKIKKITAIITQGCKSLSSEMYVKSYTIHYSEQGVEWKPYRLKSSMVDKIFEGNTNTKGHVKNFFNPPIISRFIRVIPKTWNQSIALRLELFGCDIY
Description: as §1

prothrombin [6] = target: T5, prothrombin (UniProt P00734 44-622); experiment: SPR, Biacore 3000, CM-5 chip (Prep 1)
Description: as §1

α-1-antitrypsin [7] = target: T6, α-1-antitrypsin (UniProt P01009 25-418); experiment: SPR, Biacore 3000, CM-5 chip (Prep 1)
T6 sequence (P01009 25-418 limits assumed): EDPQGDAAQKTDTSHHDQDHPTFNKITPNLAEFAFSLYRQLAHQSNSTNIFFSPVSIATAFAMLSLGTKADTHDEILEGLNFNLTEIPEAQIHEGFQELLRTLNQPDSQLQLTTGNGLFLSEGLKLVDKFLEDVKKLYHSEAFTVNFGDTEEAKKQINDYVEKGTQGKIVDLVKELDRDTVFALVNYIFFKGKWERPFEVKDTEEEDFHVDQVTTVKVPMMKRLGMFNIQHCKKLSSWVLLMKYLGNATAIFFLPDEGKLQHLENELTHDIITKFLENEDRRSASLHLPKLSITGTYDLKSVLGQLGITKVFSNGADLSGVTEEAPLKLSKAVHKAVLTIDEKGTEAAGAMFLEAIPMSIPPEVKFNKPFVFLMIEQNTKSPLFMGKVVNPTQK
Description: as §1

factor X (fX) [8] = target: T7, factor X (fX) (UniProt P00742 41-488); experiment: SPR, Biacore 3000, CM-5 chip (Prep 1)
Description: as §1

[9] = target: T1, tissue factor pathway inhibitor (TFPI); experiment: Kd of fXa derivative-TFPI over Ki of TFPI-fXa, fXa chromogenic assay (FIG. 1C)
[10] = target: T1, tissue factor pathway inhibitor (TFPI); experiment: competition in the fXa chromogenic activity assay: SEQ ID NO: 3 competes with fXa (0.5 nM) for TFPI (1.0 nM)
[11] = target: T1, tissue factor pathway inhibitor (TFPI); experiment: cell-based or functional assay
antithrombin III (ATIII) = antithrombin III (ATIII) (UniProt P01008 33-464); experiment: SPR, Biacore 3000, CM-5 chip
antithrombin III (ATIII), sequence (P01008 33-464 limits assumed): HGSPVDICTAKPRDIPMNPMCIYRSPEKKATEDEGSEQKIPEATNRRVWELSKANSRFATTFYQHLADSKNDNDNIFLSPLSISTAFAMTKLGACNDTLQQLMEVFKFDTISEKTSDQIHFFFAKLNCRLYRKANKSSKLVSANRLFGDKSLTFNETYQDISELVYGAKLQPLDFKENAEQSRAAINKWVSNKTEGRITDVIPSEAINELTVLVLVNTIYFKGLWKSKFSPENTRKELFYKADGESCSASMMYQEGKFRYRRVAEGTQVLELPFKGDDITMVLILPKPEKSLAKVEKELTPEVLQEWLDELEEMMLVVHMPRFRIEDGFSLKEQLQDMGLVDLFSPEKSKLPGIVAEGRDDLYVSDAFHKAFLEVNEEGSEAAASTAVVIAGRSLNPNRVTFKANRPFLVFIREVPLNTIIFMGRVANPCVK
Description: as §1

factor VII (fVII) [12] = target: T2, factor VII (fVII); experiment: SPR, Biacore 3000, CM-5 chip
Description: as §1

α-2-macroglobulin [13] = target: T3, α-2-macroglobulin; experiment: SPR, Biacore 3000, CM-5 chip
Description: as §1

factor V (fV) [14] = target: T4, factor V (fV); experiment: SPR, Biacore 3000, CM-5 chip
Description: as §1

prothrombin [15] = target: T5, prothrombin; experiment: SPR, Biacore 3000, CM-5 chip
Description: as §1

α-1-antitrypsin [16] = target: T6, α-1-antitrypsin; experiment: SPR, Biacore 3000, CM-5 chip
Description: as §1

factor X (fX) [17] = target: T7, factor X (fX); experiment: SPR, Biacore 3000, CM-5 chip
Description: as §1

- Ratio (Kd/Ki) [1]: 4.97
- EC50 (read off the curve) [2]: ~0.002 µM
- Kd (factor VII (fVII) [3]): 2.78 µM
- binding result (α-2-macroglobulin [4]): no binding
- binding result (factor V (fV) [5]): no binding
- binding result (prothrombin [6]): no binding
- binding result (α-1-antitrypsin [7]): no binding
- binding result (factor X (fX) [8]): no binding
- Ratio (Kd/Ki) [9]: 2.69
- EC50 (read off the curve) [10]: ~0.002 µM
- EC50 (read off the curve): fXa formed after 15 min by fVIIa/TF with 2.4 nM TFPI [11]: ~0.005 µM
B1: fXa derivative (SEQ ID NO: 3) (other)
light: ANSFLFWNKYKDGDQCETSPCQNQGKCKDGLGEYTCTCLEGFEGKNCELFTRKLCSLDNGDCDQFCHEEQNSVVCSCARGYTLADNGKACIPTGPYPCGKQTLER
heavy: IVGGQECKDGECPWQALLINEENEGFCGGTILSEFYILTAAHCLYQAKRFKVRVGDRNTEQEEGGEAVHEVEVVIKHNRFTKETYDFDIAVLRLKTPITFRMNVAPACLPERDWAESTLMTQKTGIVSGFGRTHEKGRQSTRLKMLEVPYVDRNSCKLSSSFIITQNMFCAGYDTKQEDACQGDAGGPHVTRFKDTYFVTGIVSWGEGCARKGKYGIYTKVTAFLKWIDRSMKTRGLPKAKSHAPEVITSSPLK
notes: Prep 1 and Prep 2 are two preparations of the same molecule; also called fXa derivative Prep 1; fXa derivative Prep 2

- Kd (antithrombin III (ATIII)): 1.06 to 13.2 µM
- Kd (factor VII (fVII) [12]): 2.97 µM
- binding result (α-2-macroglobulin [13]): no binding
- binding result (factor V (fV) [14]): no binding
- binding result (prothrombin [15]): no binding
- binding result (α-1-antitrypsin [16]): no binding
- binding result (factor X (fX) [17]): no binding
B2: wild-type factor Xa (fXa) (enzyme)
light: ANSFLEEMKKGHLERECMEETCSYEEAREVFEDSDKTNEFWNKYKDGDQCETSPCQNQGKCKDGLGEYTCTCLEGFEGKNCELFTRKLCSLDNGDCDQFCHEEQNSVVCSCARGYTLADNGKACIPTGPYPCGKQTLER
heavy: B1 heavy with A185S
modifications: 11 gamma-carboxyglutamic acid residues (Gla) in the Gla domain, residues 1-45 of SEQ ID NO. 1
